B1: KLHL14 (parent)
chain: WLYCYDPVMDVWARKQDMNTKRAI
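Also: lentivirally expressed fusions sorted by FACS into six bins by GFP to DsRed ratio, PSI derived from sequencing read proportions per bin multiplied by bin number.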

Variants of B1 are the subject of the data set. In words: protein stability index of a GFP-peptide fusion (GPS, HEK-293T) (PSI 1-6); higher = more stable. The settings on record: c terminus: a fixed tail appended.
WLYCYDPVMDVWARHQDMNTKRAI: the protein stability index amounted to 1.94.
For WLYCYDPVMDVWARNQDMNTKRAI the value was 2.03.
For WLYCYDPVMDVWARVQDMNTKRAI the value was 1.89.
The figure for WLYCYDPVMDVWARFQDMNTKRAI is 1.76; for WLYCYDPVMDVWARWQDMNTKRAI it is 1.48.
For the variant WLYCYDPVMDVWARTQDMNTKRAI, the protein stability index turned out to be 1.71.
The figure for WLYCYDPVMDVWARLQDMNTKRAI is 2.21.
For the variant WLYCYDPVMDVWAREQDMNTKRAI, the protein stability index turned out to be 2.21.
WLYCYDPVMDVWARRQDMNTKRAI: the protein stability index is 2.14.
The figure for WLYCYDPVMDVWARMQDMNTKRAI is 1.54; for WLYCYDPVMDVWARQQDMNTKRAI it is 1.95; for WLYCYDPVMDVWARCQDMNTKRAI it is 2.29.
As for WLYCYDPVMDVWARIQDMNTKRAI, the protein stability index turned out to be 2.11.
For WLYCYDPVMDVWARSQDMNTKRAI the value was 1.79; for WLYCYDPVMDVWARAQDMNTKRAI, 1.68.
As for WLYCYDPVMDVWARDQDMNTKRAI, the protein stability index was found to be 1.97.
For WLYCYDPVMDVWARGQDMNTKRAI the value was 1.56; for WLYCYDPVMDVWARYQDMNTKRAI, 2.08.
For WLYCYDPVNDVWARKQDMNTKRAI the value was 2.18; for WLYCYDPVHDVWARKQDMNTKRAI, 2.24; for WLYCYDPVQDVWARKQDMNTKRAI, 2.6.
For WLYCYDPVADVWARKQDMNTKRAI, the protein stability index turned out to be 2.62.
As to WLYCYDPVRDVWARKQDMNTKRAI, the protein stability index was 2.09.
Take WLYCYDPVGDVWARKQDMNTKRAI: the protein stability index stood at 1.77.
The figure for WLYCYDPVCDVWARKQDMNTKRAI is 2.35; for WLYCYDPVSDVWARKQDMNTKRAI it is 2.26.
Consider WLYCYDPVFDVWARKQDMNTKRAI, for which the protein stability index was found to be 1.62.
The figure for WLYCYDPVDDVWARKQDMNTKRAI is 1.92; for WLYCYDPVKDVWARKQDMNTKRAI it is 2.02; for WLYCYDPVTDVWARKQDMNTKRAI it is 2.55.
For WLYCYDPVVDVWARKQDMNTKRAI the value was 1.65.
For WLYCYDPVEDVWARKQDMNTKRAI the value was 1.74; for WLYCYDPVIDVWARKQDMNTKRAI, 1.9; for WLYCYDPVWDVWARKQDMNTKRAI, 1.64.
Regarding WLYCYDPVYDVWARKQDMNTKRAI, the protein stability index amounted to 2.01.
The figure for WLYCYDPVPDVWARKQDMNTKRAI is 2.32; for WLYCYDPVLDVWARKQDMNTKRAI it is 2.17; for WLYCYDPVMDVWNRKQDMNTKRAI it is 2.46.
As for WLYCYDPVMDVWSRKQDMNTKRAI, the protein stability index is 2.
For WLYCYDPVMDVWHRKQDMNTKRAI, the protein stability index worked out at 2.67.
For WLYCYDPVMDVWMRKQDMNTKRAI, the protein stability index is 1.96.
As to WLYCYDPVMDVWRRKQDMNTKRAI, the protein stability index is 1.8.
The figure for WLYCYDPVMDVWERKQDMNTKRAI is 2.36.
Turning to WLYCYDPVMDVWQRKQDMNTKRAI, the protein stability index was 2.46.
In the case of WLYCYDPVMDVWLRKQDMNTKRAI, the protein stability index worked out at 1.97.
In the case of WLYCYDPVMDVWVRKQDMNTKRAI, the protein stability index was 2.13.
For WLYCYDPVMDVWTRKQDMNTKRAI the value was 2.1; for WLYCYDPVMDVWIRKQDMNTKRAI, 2.18.
With WLYCYDPVMDVWDRKQDMNTKRAI, the protein stability index worked out at 2.84.
In the case of WLYCYDPVMDVWWRKQDMNTKRAI, the protein stability index is 2.44.
Consider WLYCYDPVMDVWKRKQDMNTKRAI, for which the protein stability index was determined as 2.52.
WLYCYDPVMDVWFRKQDMNTKRAI: the protein stability index stood at 1.57.
As to WLYCYDPVMDVWGRKQDMNTKRAI, the protein stability index was 1.97.
Take WLYCYDPVMDVWYRKQDMNTKRAI: the protein stability index came to 1.87.
For WLYCYDPVMDVWPRKQDMNTKRAI the value was 1.82.
For WLYCYDPVMDVWCRKQDMNTKRAI the value was 1.81; for WLYCYDPVMDVWARKPDMNTKRAI, 1.85.
On to WLYCYDPVMDVWARKYDMNTKRAI, for which the protein stability index is 1.69.
For WLYCYDPVMDVWARKFDMNTKRAI the value was 1.85; for WLYCYDPVMDVWARKWDMNTKRAI, 2.7; for WLYCYDPVMDVWARKNDMNTKRAI, 2.16.
As to WLYCYDPVMDVWARKGDMNTKRAI, the protein stability index was 2.25.
The figure for WLYCYDPVMDVWARKHDMNTKRAI is 2.27; for WLYCYDPVMDVWARKLDMNTKRAI it is 1.72; for WLYCYDPVMDVWARKSDMNTKRAI it is 1.94.
Regarding WLYCYDPVMDVWARKMDMNTKRAI, the protein stability index came to 2.5.
The figure for WLYCYDPVMDVWARKIDMNTKRAI is 1.81; for WLYCYDPVMDVWARKTDMNTKRAI it is 1.83; for WLYCYDPVMDVWARKKDMNTKRAI it is 1.7.
Consider WLYCYDPVMDVWARKDDMNTKRAI, for which the protein stability index stood at 2.15.
For WLYCYDPVMDVWARKVDMNTKRAI the value was 2.29; for WLYCYDPVMDVWARKEDMNTKRAI, 2.4; for WLYCYDPVMDVWARKADMNTKRAI, 2.42.
For WLYCYDPVMDVWARKCDMNTKRAI, the protein stability index is 1.81.
With WLYCYDPVMDVWARKRDMNTKRAI, the protein stability index is 1.95.
Consider WLYCYDPVMKVWARKQDMNTKRAI, for which the protein stability index amounted to 3.09.
For the variant WLYCYDPVMWVWARKQDMNTKRAI, the protein stability index stood at 2.71.
The figure for WLYCYDPVMIVWARKQDMNTKRAI is 1.8; for WLYCYDPVMLVWARKQDMNTKRAI it is 2.82.
For the variant WLYCYDPVMMVWARKQDMNTKRAI, the protein stability index came to 1.59.
Consider WLYCYDPVMTVWARKQDMNTKRAI, for which the protein stability index worked out at 1.69.
The figure for WLYCYDPVMSVWARKQDMNTKRAI is 1.99; for WLYCYDPVMFVWARKQDMNTKRAI it is 1.54.
As for WLYCYDPVMQVWARKQDMNTKRAI, the protein stability index turned out to be 2.74.
With WLYCYDPVMHVWARKQDMNTKRAI, the protein stability index was determined as 2.11.
As for WLYCYDPVMCVWARKQDMNTKRAI, the protein stability index amounted to 1.91.
WLYCYDPVMYVWARKQDMNTKRAI: the protein stability index is 1.92.
In the case of WLYCYDPVMAVWARKQDMNTKRAI, the protein stability index amounted to 1.88.
On to WLYCYDPVMGVWARKQDMNTKRAI, for which the protein stability index amounted to 2.77.
As to WLYCYDPVMEVWARKQDMNTKRAI, the protein stability index worked out at 2.19.
Consider WLYCYDPVMNVWARKQDMNTKRAI, for which the protein stability index was found to be 2.1.
WLYCYDPVMVVWARKQDMNTKRAI: the protein stability index was found to be 1.52.
As for WLYCYDPVMRVWARKQDMNTKRAI, the protein stability index was found to be 2.34.
For WLYCYDPVMPVWARKQDMNTKRAI the value was 1.72.

For the origin of these results see the supplement of paper PMC10567573.
